molecular target: T1, HLA-B*44:05 (human); assay: UV peptide exchange, anti-b2m ELISA
T1 construct: also called peptide-receptive MHC class I molecule
Outline: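 Peptide-receptive HLA-B*44:05 monomers after UV-induced exchange were diluted 100-fold and captured on streptavidin-coated plates for 1 h at 37 °C. Bound complexes were detected with 2 µg/ml HRP-anti-β2m (1 h, 37 °C) and TMB, read at 450 nm. β2m signal reflects peptide-stabilized complex yield.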

Binder	peptide exchange yield
SEVEYINKY	50 to 75%
AELMDKPLTF	50 to 75%
LEHPFLVNLW	> 75%
QELFLQEVRM	50 to 75%
SESDGIEQL	50 to 75%
NEFRRKLTF	50 to 75%
DEQRRQNVAY	20 to 50%
LDGIPTAGW	50 to 75%
TEFAVKLKI	50 to 75%
MELLFLDTF	20 to 50%
KEKVPGITI	50 to 75%
EEYKFPSLF	50 to 75%
IEQGRVVLW	> 75%
EECGKAFKKF	50 to 75%
AENRVGKMEA	20 to 50%
TEFHGGLHY	50 to 75%
EENTGKTYF	50 to 75%
AEDFVWAQW	> 75%
NESGKAFNY	> 75%
SELNPLALY	50 to 75%
REVDPDDSYVF	50 to 75%
NEIGQELTGQEW	> 75%
NEAEWQEIL	50 to 75%
DEMENLLTY	> 75%
TESIGAQIY	50 to 75%
EESDYITHY	50 to 75%
EDASLMGLY	20 to 50%

Binder	peptide exchange yield
DEVRFFKGNKY	20 to 50%
AEDARGWTA	20 to 50%
EEVLLANALW	50 to 75%
GEVQENYKL	50 to 75%
AEAMGKFKQCF	50 to 75%
SEILRVTLY	50 to 75%
VEIVTIPSL	50 to 75%
TEAVLNRY	20 to 50%
IEQADWPEI	20 to 50%
TEVSVLLLTF	50 to 75%
IETSSEYFNF	50 to 75%
AEREQVIKL	> 75%
EECGKAFRVF	50 to 75%
EECGKAFSVF	50 to 75%
EECDKAFHF	50 to 75%
KELEERMLHW	> 75%
EECDKAYSF	20 to 50%
QESVHVASY	> 75%
REDPIVYEI	20 to 50%
AEIIRYIF	10 to 20%
EEMERDLDMY	50 to 75%
GEYNKHAQLW	> 75%
QELMAFSFAGL	> 75%
SETILAVGL	50 to 75%
TELGLFGVW	> 75%
HEATFGEKRF	50 to 75%
VENIFHNF	20 to 50%

— US20200087363A1 (IMMATICS BIOTECHNOLOGIES, published 2020)
